US20230287081A1 (NANTONG YICHEN BIOPHARMA, published 2023)

Columns and labels:
[1] = molecular target: T1, mPDL1 on the surface of Hepa1-6 cells (mouse, UniProt Q9EP73 19-290); assay: flow cytometry on Hepa1-6 cells (hGPC3- mPDL1+)
T1 construct: whole, on cells; also called mouse PD-L1
Protocol: (§1) A431, MC38-hEGFR, CHO-PD-L1, HepG2, and Hepa1-6 cells (DMEM medium containing 10% FBS, 1% double antibody) were cultured. After trypsinization, 2*10⁵ cells were taken and washed with pre-cooled PBS for 3 times. After blocked with PBS containing 2% FBS at 4° C., supernatant was discarded by centrifugation, 100 µL of the antibody fusion proteins with different concentrations diluted by the PBS solution containing 2% FBS were added and incubated at 4° C. for 1 h. The unbound antibody fusion protein was washed off with PBS containing 2% FBS, and secondary antibody Mouse Anti-Human IgG Fc-APC (Southern biotech) was added and incubated at 4° C. for 1 h. After being washed with PBS containing 2% FBS for three times, the fluorescence intensity was detected by flow cytometry.

[2] = molecular target: T2, hPD-L1 on the cell surface (CHO-hPD-L1 cells; A431 cells) (human, UniProt Q9NZQ7 19-290); assay: flow cytometry on A431 cells (hGPC3- hPDL1+)
T2 construct: whole, on cells; also called CHO-PD-L1
T2 sequence (Q9NZQ7 19-290): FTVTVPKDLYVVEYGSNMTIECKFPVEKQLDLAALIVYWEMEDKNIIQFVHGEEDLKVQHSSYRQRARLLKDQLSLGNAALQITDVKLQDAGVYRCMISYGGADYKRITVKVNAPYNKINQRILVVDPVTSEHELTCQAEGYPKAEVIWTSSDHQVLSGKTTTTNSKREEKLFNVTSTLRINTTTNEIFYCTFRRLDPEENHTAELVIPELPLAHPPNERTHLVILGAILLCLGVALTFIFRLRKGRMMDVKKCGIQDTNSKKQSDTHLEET
Protocol: as §1

[3] = molecular target: T3, hPD-L1-hIGg1Fc (SinoBiological) (human, UniProt Q9NZQ7 19-238); assay: ELISA, hPD-L1-hIgG1Fc coated
T3 construct: Bought reagent; also called soluble hPD-L1; human PD-L1; not shown: human IgG1 Fc
T3 sequence (Q9NZQ7 19-238 limits assumed): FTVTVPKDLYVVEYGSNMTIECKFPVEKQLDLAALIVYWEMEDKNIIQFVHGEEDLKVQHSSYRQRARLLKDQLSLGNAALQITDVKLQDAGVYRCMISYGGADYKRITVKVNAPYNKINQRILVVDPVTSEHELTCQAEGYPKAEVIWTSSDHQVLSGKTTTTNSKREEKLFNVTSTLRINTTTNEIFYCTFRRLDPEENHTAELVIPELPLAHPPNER
Protocol: (§2) hPD-L1-hIGg1Fc (SinoBiological) or mouse PD-L1-Fc (SinoBiological) (100 ng/well) was coated in 96-well plates, and incubated overnight at 4° C. […] After being washed with PBST containing 2% skimmed milk powder for 4-5 times, anti-human kappa light chain-HRP (Sigma A7146, 1:3000) secondary antibody was added and incubated at room temperature for 1 h, and then washed with PBST containing 2% skimmed milk powder for 4-5 times. Colordevelopment was performed by QuantaBlu fluorescent peroxidase substrate (Life technologies, Cat.15169) and read at 325 nm and 420 nm, or by TMB color reagent (BioLegend, Cat. 421101) and read at 650 nm (unterminated) or 450 nm (terminated). Data was analyzed by nonlinear regression using specific binding model with Prizm Graphpad software.

[4] = molecular target: T4, mouse PD-L1-Fc (SinoBiological) (mouse, UniProt Q9EP73 19-238, limits assumed); assay: ELISA, mouse PD-L1-Fc coated
T4 construct: Bought reagent; also called soluble mPD-L1; not shown: Fc
T4 sequence (Q9EP73 19-238 limits assumed): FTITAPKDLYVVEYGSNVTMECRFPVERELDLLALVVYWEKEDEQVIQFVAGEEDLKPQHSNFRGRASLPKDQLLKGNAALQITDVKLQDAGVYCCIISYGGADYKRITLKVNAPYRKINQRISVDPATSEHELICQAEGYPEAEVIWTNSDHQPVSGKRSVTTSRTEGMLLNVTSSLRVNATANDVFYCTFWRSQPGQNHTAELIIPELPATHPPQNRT
Protocol: as §2

[5] = molecular target: T2, hPD-L1 on the cell surface (CHO-hPD-L1 …); assay: flow cytometry on CHO-hPD-L1 cells (hEGFR- hPDL1+)
Protocol: as §1

[6] = molecular target: T4, mouse PD-L1-Fc (SinoBiological); assay: ELISA, mouse PD-L1-Fc coated; weaker than the PD-1m fusion
Protocol: as §2

[7] = molecular target: T3, hPD-L1-hIGg1Fc (SinoBiological); assay: ELISA, hPD-L1-hIgG1Fc coated; weaker than the PD-1m fusion
Protocol: as §2

Measured: binding result

T1 sequence (Q9EP73 19-290): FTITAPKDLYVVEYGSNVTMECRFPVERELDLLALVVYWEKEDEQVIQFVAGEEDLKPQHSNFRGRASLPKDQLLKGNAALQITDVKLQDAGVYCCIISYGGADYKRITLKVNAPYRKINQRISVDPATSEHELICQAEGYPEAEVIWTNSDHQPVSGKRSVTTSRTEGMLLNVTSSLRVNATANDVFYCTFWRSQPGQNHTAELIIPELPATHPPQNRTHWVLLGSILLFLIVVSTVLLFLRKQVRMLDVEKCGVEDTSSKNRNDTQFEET

B1: PD-1m-aGPC-3L (bispecific antibody, human IgG1, kappa)
heavy: QVQLVQSGAEVKKPGASVKVSCKASGYTFTDYEMHWVRQAPGQGLEWMGALDPKTGDTAYSQKFKGRVTLTADKSTSTAYMELSSLTSEDTAVYYCTRFYSYTYWGQGTLVTVSSASTKGPSVFPLAPSSKSTSGGTAALGCLVKDYFPEPVTVSWNSGALTSGVHTFPAVLQSSGLYSLSSVVTVPSSSLGTQTYICNVNHKPSNTKVDKKVEPKSCDKTHTCPPCPAPPVAGPSVFLFPPKPKDTLMISRTPEVTCVVVDVSHEDPEVKFNWYVDGVEVHNAKTKPREEQYNSTYRVVSVLTVLHQDWLNGKEYKCKVSNKGLPSSIEKTISKAKGQPREPQVYTLPPSRDELTKNQVSLTCLVKGFYPSDIAVEWESNGQPENNYKTTPPVLDSDGSFFLYSKLTVDKSRWQQGNVFSCSVMHEALHNHYTQKSLSLSPGK
light: LDSPDRPWNPPTFSPALLVVTEGDNATFTCSFSNTSESFVLNWYRMSPSNQTDKLAAFPEDRSQPGQDSRFRVTQLPNGRDFHMSVVRARRNDSGTYLCGAISLAPKVQIKESLRAELRVTERRAEVPTAHPSPSPRPAGQFQGGGGSGGGGSGGGGSGDVVMTQSPLSLPVTPGEPASISCRSSQSLVHSNRNTYLHWYLQKPGQSPQLLIYKVSNRFSGVPDRFSGSGSGTDFTLKISRVEAEDVGVYYCSQNTHVPPTFGQGTKLEIKRTVAAPSVFIFPPSDEQLKSGTASVVCLLNNFYPREAKVQWKVDNALQSGNSQESVTEQDSKDSTYSLSSTLTLSKADYEKHKVYACEVTHQGLSSPVTKSFNRGEC
binds: [1] | [2] | [3] | [4]

B2: PD-1m-aEGFRL (bispecific antibody, human IgG1, kappa)
heavy: QVQLQESGPGLVKPSETLSLTCTVSGGSVSSGDYYWTWIRQSPGKGLEWIGHIYYSGNTNYNPSLKSRLTISIDTSKTQFSLKLSSVTAADTAIYYCVRDRVTGAFDIWGQGTMVTVSSASTKGPSVFPLAPSSKSTSGGTAALGCLVKDYFPEPVTVSWNSGALTSGVHTFPAVLQSSGLYSLSSVVTVPSSSLGTQTYICNVNHKPSNTKVDKKVEPKSCDKTHTCPPCPAPPVAGPSVFLFPPKPKDTLMISRTPEVTCVVVDVSHEDPEVKFNWYVDGVEVHNAKTKPREEQYNSTYRVVSVLTVLHQDWLNGKEYKCKVSNKGLPSSIEKTISKAKGQPREPQVYTLPPSRDELTKNQVSLTCLVKGFYPSDIAVEWESNGQPENNYKTTPPVLDSDGSFFLYSKLTVDKSRWQQGNVFSCSVMHEALHNHYTQKSLSLSPGK
light: not shown
binds: [5] | [3] | [4]

B3: PD-1-aEGFRL (bispecific antibody)
heavy: QVQLQESGPGLVKPSETLSLTCTVSGGSVSSGDYYWTWIRQSPGKGLEWIGHIYYSGNTNYNPSLKSRLTISIDTSKTQFSLKLSSVTAADTAIYYCVRDRVTGAFDIWGQGTMVTVSSASTKGPSVFPLAPSSKSTSGGTAALGCLVKDYFPEPVTVSWNSGALTSGVHTFPAVLQSSGLYSLSSVVTVPSSSLGTQTYICNVNHKPSNTKVDKKVEPKSCDKTHTCPPCPAPPVAGPSVFLFPPKPKDTLMISRTPEVTCVVVDVSHEDPEVKFNWYVDGVEVHNAKTKPREEQYNSTYRVVSVLTVLHQDWLNGKEYKCKVSNKGLPSSIEKTISKAKGQPREPQVYTLPPSRDELTKNQVSLTCLVKGFYPSDIAVEWESNGQPENNYKTTPPVLDSDGSFFLYSKLTVDKSRWQQGNVFSCSVMHEALHNHYTQKSLSLSPGK
light: not shown
notes: Wild-type human PD-1 fused to the light chain of the anti-human EGFR antibody
binds: [6] | [7]
